From US20230203158A1 (FLAGSHIP PIONEERING INNOVATIONS VII, published 2023)
Blank lines part the entries; values can stand above or below the binder they belong to.

How the values were obtained:
[1] = molecular target: T1, Murine DSG1 (NCBI accession NP_034209.2) with a c-Myc epitope tag at the C terminus, transiently expressed in … (mouse, UniProt Q61495 50-1057); assay: flow cytometry on RAW 264.7 cells transiently expressing murine DSG1
T1 construct: whole, on cells; also called mouse DSG1; murine desmoglein-1
T1 sequence (looked up): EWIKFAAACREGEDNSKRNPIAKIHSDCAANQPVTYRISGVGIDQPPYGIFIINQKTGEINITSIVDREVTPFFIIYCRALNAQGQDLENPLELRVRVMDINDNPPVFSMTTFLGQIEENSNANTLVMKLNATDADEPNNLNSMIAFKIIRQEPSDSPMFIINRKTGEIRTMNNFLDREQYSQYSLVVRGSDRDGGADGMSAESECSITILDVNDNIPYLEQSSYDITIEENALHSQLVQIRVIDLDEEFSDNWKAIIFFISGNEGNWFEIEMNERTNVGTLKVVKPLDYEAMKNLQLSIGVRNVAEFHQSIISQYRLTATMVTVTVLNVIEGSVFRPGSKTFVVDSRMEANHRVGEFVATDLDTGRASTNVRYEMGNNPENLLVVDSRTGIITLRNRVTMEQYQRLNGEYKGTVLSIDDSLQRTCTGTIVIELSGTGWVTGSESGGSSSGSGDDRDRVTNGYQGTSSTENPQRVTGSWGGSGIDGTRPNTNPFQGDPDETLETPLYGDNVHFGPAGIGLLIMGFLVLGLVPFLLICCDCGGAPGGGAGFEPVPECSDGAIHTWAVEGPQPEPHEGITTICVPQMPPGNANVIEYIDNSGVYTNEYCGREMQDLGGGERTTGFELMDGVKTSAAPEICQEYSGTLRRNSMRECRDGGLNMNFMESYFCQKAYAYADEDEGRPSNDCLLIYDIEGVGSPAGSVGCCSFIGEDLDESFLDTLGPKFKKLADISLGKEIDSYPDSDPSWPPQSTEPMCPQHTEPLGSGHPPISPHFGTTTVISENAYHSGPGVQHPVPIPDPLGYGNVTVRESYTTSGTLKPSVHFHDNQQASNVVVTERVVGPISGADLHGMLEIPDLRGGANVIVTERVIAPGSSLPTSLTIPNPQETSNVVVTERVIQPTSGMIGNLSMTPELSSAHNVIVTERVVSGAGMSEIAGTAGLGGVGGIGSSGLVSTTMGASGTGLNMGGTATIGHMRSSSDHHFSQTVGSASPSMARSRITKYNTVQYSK
Text: Murine DSG1 (NCBI accession NP_034209.2) with a c-Myc epitope tag at the protein C terminus was transiently expressed in RAW 264.7 cells using LIPOFECTAMINE™ 3000 (ThermoFisher Scientific) according to the manufacturer's protocol.

[2] = molecular target: IL-10 receptor of HEK-BLUE IL-10 cells (the cells express all the components of the IL-10 signaling pathway); assay: cell-based or functional assay
[3] = molecular target: T2, recombinant His-tagged human IL-10Ra (Creative Biomart) (human, UniProt Q13651 22-235); assay: ELISA, His-tagged human IL-10Ra coated at 1 µg/mL
T2 construct: also called IL-10 receptor alpha; not shown: His tag
T2 sequence (looked up): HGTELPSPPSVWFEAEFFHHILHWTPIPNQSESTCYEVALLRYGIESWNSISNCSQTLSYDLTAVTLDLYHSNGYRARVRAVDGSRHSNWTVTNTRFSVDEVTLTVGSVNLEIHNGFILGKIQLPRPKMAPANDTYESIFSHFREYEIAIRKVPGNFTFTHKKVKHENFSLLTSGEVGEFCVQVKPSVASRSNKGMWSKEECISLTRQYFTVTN
Experimental: To test the binding of the IL-10/anti-DSG1 ANDbodies to IL-10 receptor alpha (IL-10Ra) by ELISA, recombinant His-tagged human IL-10Ra (Creative Biomart) was coated on NUNC-IMMUNO™ MAXISORP™ ELISA plates at 1 μg/mL concentration overnight. The next day, coated antigen was removed and the wells were blocked with 1% IgG-free BSA followed by incubation with 11 three-fold serially diluted anti-IL-10/anti-DSG1 ANDbodies (as provided above) with a starting concentration of 30 μg/mL. Bound antibody was detected with peroxidase-conjugated anti-human IgG antibodies with TMB and acid stop reagents.

- binding result [1]: binds
B1: PRO004 (anti-DSG1 antibody 3-07/1e on a human IgG1 LALA-PG backbone, lambda light chain) (antibody, V domains shown)
VH: QVQLVQSGGGLVQPGGSLRVSCAASGFTSNIFWMSWVRQAPGKGLEWVANIDEDGSEKNYVDSVKGRFTISRDNAKNSLYLQMNSLRAEDTAVYYCARESFYYGSGTYFDFWGQGTLVTVSS
VL: ELVVTQPPSVSGAPGQRVTISCTGSSSNIGAGYDVHWYQQLPGTAPKLLIYGNKNRPSGVPDRFSGSKSGTSASLAITGLRAEDEADYYCQSFDSSLGWVFGGGTQLTVLG
notes: human IgG1 with L234A, L235A, P329G

- EC50 (pM), HEK-BLUE IL-10 signaling assay (SEAP) [2]: 50 pM
- binding result [3]: binds
B2: IL-10 Fc (Creative Biomart IL10-326H), recombinant human IL-10 fused to a human Fc domain (Fc fusion, UniProt P22301 19-178, looked up)
chain: SPGQGTQSENSCTHFPGNLPNMLRDLRDAFSRVKTFFQMKDQLDNLLLKESLLEDFKGYLGCQALSEMIQFYLEEVMPQAENQDPDIKAHVNSLGENLKTLRLRLRRCHRFLPCENKSKAVEQVKNAFNKLQEKGIYKAMSEFDIFINYIEAYMTMKIRN
notes: also called positive control IL-10 Fc; hIL-10 Fc fusion; not shown: human Fc domain and any linker of the bought product
